Assay results as given in US20050089523A1.

Tests used:
[1] = molecular target: anti-VCAM-1•tTF coaguligand (anti-VCAM-1 antibody MK2.7 covalently linked through SMPT to truncated tissue factor, one antibody to one tTF, Mr 180,000) (human) (UniProt P13726); assay: 125I-labeled 10H10 bound to anti-VCAM-1•tTF-treated, IL-1alpha-activated bEnd.3 cells, at saturation
[2] = molecular target: murine vascular endothelial adhesion molecule-1 (VCAM-1) (murine) (UniProt P29533); assay: cell-based or functional assay
[3] = molecular target: murine vascular endothelial adhesion molecule-1 (VCAM-1) (murine) (UniProt P29533); assay: bEnd.3 cells treated with coaguligand, detected with 125I-labeled 10H10; attributed to constitutive VCAM-1 expression

UniProt P29533, sequence (P29533 25-739): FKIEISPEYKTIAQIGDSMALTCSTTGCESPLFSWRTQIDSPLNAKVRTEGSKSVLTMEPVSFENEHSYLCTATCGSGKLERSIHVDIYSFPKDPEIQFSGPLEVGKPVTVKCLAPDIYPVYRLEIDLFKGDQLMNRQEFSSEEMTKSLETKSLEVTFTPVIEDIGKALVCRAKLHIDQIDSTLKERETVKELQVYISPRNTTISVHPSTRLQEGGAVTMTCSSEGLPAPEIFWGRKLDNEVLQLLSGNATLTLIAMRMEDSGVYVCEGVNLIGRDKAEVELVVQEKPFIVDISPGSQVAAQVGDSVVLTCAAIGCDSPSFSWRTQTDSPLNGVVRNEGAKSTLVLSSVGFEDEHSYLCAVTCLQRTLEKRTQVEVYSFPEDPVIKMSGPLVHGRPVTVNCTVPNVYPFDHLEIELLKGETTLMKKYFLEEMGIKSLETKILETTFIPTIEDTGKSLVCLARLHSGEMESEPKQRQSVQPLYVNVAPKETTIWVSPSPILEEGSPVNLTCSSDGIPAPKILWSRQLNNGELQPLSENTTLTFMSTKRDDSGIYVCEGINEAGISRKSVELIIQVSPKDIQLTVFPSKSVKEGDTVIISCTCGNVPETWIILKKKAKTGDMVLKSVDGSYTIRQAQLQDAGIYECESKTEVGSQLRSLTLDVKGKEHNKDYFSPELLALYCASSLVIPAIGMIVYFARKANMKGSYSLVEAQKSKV

10H10, mouse monoclonal antibody against human tissue factor
amount of anti-TF antibody bound at saturation [1]: 8.7 fmol
molecules of anti-TF antibody bound per cell (molecules per cell) [1]: 540000

anti-VCAM-1•tTF coaguligand (anti-VCAM-1 antibody MK2.7 covalently linked through SMPT to truncated tissue factor, one antibody to one tTF, Mr 180,000) (from UniProt P13726 33-251)
Generation of Factor Xa by anti-VCAM-1•tTF bound to intact, IL-1α-stimulated bEnd.3 cells (ng per 10^4 cells per 60 min.) [2]: 3.17
Generation of Factor Xa by anti-VCAM-1•tTF bound to intact, unstimulated (control) bEnd.3 cells (ng per 10^4 cells per 60 min.) [2]: 1.64
Generation of Factor Xa by anti-VCAM-1•tTF bound to saponin-permeabilized, IL-1α-stimulated bEnd.3 cells (ng per 10^4 cells per 60 min.) [2]: 98.8
Generation of Factor Xa by anti-VCAM-1•tTF bound to saponin-permeabilized, unstimulated (control) bEnd.3 cells (ng per 10^4 cells per 60 min.) [2]: 49.2
binding to unstimulated cells relative to activated cells [3]: 0.5
